In the NTF2 design screens of Basanta et al. (2020):

experiment: protease stability score; higher = more stable; yeast display proteolysis, trypsin and chymotrypsin;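 further: relative to predicted unfolded state with 0 unfolded-like and 1 meaning tenfold more protease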

Question: Which protease stability score does the source give for “SEEQEEMRKLLKEFWHHTQTGDEDSFKRLADPDVKLRIDGKNYHGREATEFFTRRFDVIHDLRIHHMTIQGDWVRLEGTMHIEVGNYHDTKDVRIIILKYNGRWVNHEVRIH” here?
Answer: Its protease stability score is 0.741.

Question: For “SEDDEHSRDAFEIFMRLIRTGDWHHLLNLLDPHVRIDFNGREHIGREEATRILVEWRIRNIRLRHYDMVNGRAHFHTESDVEFNGRRDKIEIHMVVLKIDGRWFIHSMIIH”, which protease stability score is on record?
Answer: Its protease stability score is 2.42.

Question: Which protease stability score does the source give for “DEEESRIEKVNRRWLRAYATGDEDTLNHLIDPRVRMDIDGVDLHGREEFEEWLRRIDVIRTFELKFMHIQGEKVNNDVQFDTRIDGQNRSVRNKLIIEKVDGKWVVKTIHFI” here?
Answer: The protease stability score was 0.228.

Question: With “TERDELMKRFAHIFYHWLETGDEESIKKMLDPDTLSIVDGVNLHGRDEHSRWHVELHENLGIDQIHYRLRRVEVQGDKARIDGEEEINGKHVKLRIELEVINGRIKDIRVSVR” as the sequence, how does the protease stability score read?
Answer: The protease stability score was 1.45.

Question: For “SEYEEEMRETLELTALYMRTGNEEDMKELMDPDAKIDVGDKHFHGREQVLHVIKHWRSKHIILREVDFQGEYIHSNGQVTTLINGRELDVESRWIILKVDGRWLVHSVLYL”, which protease stability score is on record?
Answer: Its protease stability score is 0.758.

Question: With “SEEEKHVTSMMELWIHYIITGDEEFFLKLADPHTRFEIGDYENHGRDAVKWHRDHLGLDNVHSRIHIKELRAVGDKVHSHTHLVIHIGDKTIRMDTKVHIVYINGRITSIIVEIS” as the sequence, how does the protease stability score read?
Answer: The protease stability score was 1.31.

Question: Which protease stability score does the source give for “DEKERLADEILEDIRKSVHTGDWDEYLRLLDPNVRTVINGKTVHGREEIKELMERLGIDHHHLRVDHWEIIDGKVHVEIEVTLQIGDKHFSRSSHILIMKFNGQWIVHTFRLH” here?
Answer: The protease stability score was 1.73.

Question: With “SEEHKEMKRSLDESAKALTTGDEEHVTKMVDPNVRIIIGDKTLIGMEKWHEFLKEMRVSIHHIIFRDSDIQGDKIRLDVEVDIRVHYNGREESSKIKSKIILLKFNGKWIIHAVEFD” as the sequence, how does the protease stability score read?
Answer: The protease stability score was 0.833.

Question: For “DEHEHVVERMARIQYKEMVTGDEELWYHLADPRVRYEIGDKEIIGREEVFRFIIEHKRDLGISKIDVRIRDIDLQGEWAIIDGTININGRKLETTIHLLVVDGRLKTFSLEIK”, which protease stability score is on record?
Answer: Its protease stability score is 1.33.

Question: With “SEEEELAREAMRILIEAIVTGDEDEIRRLLDPHVRIEVHIGDKSIKNHGRESMVRILRWLGVDHIDIKRFRLEIQGEFLHLDLDTEFHFNGVTVRTRINNRSLKINGRWQTKEVKYFIE” as the sequence, how does the protease stability score read?
Answer: The protease stability score was 1.27.

Question: For “SEDEENVEKFVRELIHNSRTGDEEKFMSLLDPNTRIHVDGRTFHGMELASEALKLLGVKVFHVHRIKVVGEWAHVDGEVNFNGKDHKVSFHSRKVNGQWLLESVEIQ”, which protease stability score is on record?
Answer: The protease stability score was 1.22.

Question: Which protease stability score does the source give for “DEEEEDMKNMLRIWEETVETGDEHTKERFADPNMRLVVNGVSSHGMESFKTVIKWEHERYDHLKKIEIHRLEFFDGRVIIDGTFTGNIDGVEYKRRIILIMVKVDGRWLLEEVIIH” here?
Answer: The protease stability score was 1.39.

Question: With “SEDEEESRHAYQKLVRDLETGDEKKTEDNVDPNVRLEQGDKTLHGRERFVHWYSRLGAKHFHIHSFEAQGDKIHIDGTINVNGVTHRVEYISLKVNGRWLMHQVIIR” as the sequence, how does the protease stability score read?
Answer: Its protease stability score is 0.662.

Question: For “DELEELIRKLAELFFEILRTGDEDKLRKLLDPHAKFTFIINGVIIDSIGRDFILKLHEDLWRRIKNVRMEYERVEVQGDKAYFRTRMNFNGKETETNLHLIIVDGKLKQESWEIE”, which protease stability score is on record?
Answer: Its protease stability score is 0.738.

Question: Which protease stability score does the source give for “RELDEMAERAVEWYFRVLRTGDEHTLSRLLDPNVRVVFDGRTYIGREWYREHEEKLGVDHMRLDVKSVRNINGRIEVDVRVNREVNGQEIRIEMRMTSEKVDGRWEVKTVEEK” here?
Answer: The protease stability score was 1.3.

Question: Which protease stability score does the source give for “SEEEHHDRMVSHLWIKLWSTGDEDRIRELLDPNAKFELEQGDKEVHDHGRESIAKWLEIMFRHLGVKHFRLEHVHVFNGRIEVIMRLDVGDKHITIILRTQVIDGRIKSFVIETRHK” here?
Answer: The protease stability score was 1.17.

Question: For “DEEDKWDELLLEILIRIEKTGDEEKWLRFLDPHVRLDVDGQEVHGREEVVRVQKEWKERLGVKHIVIKRTKVVNGRIDMDKVMNVDGVNIKVHYHYHLVNGVLHEVEVRLE”, which protease stability score is on record?
Answer: Its protease stability score is 0.992.

Question: Which protease stability score does the source give for “TEDERDFREFWERWLHNTVTGDEELLSRMMDPHAKLHVGDKENVGMEEAARLFVEISDELRLHSFHIRHEEHQGDKVILHTRMNVRINGKEINFRTVMIVRKIDGRWIIRSFQID” here?
Answer: Its protease stability score is 0.713.

Question: With “KEEEEDLKKATEDMMHLLSTGDWDTIYRLADPNTRIEINGREEVGMDLYVDKSMEEFRRLGIDKIHIHLHSVTNVNGKIYIDTRYEFNGVKIRMHIVIEKINGRWLLRTLSVK” as the sequence, how does the protease stability score read?
Answer: The protease stability score was 1.52.

Question: Which protease stability score does the source give for “SKDEEDAEEFFEKWLRYSRTGDEKSMEELMDPNTKIDFNGKEIHGREEVLRFLIELRVHHIEIKRISSINGKLHIDGRFDIIYGDKRIDTRTVLEIDKINGRWHLHTVRFV” here?
Answer: Its protease stability score is 2.12.
